Source: patent US20200123214A1 (published 2020)

T1: recombinant human CSF1 protein (human) (UniProt P09603)
T1 sequence (looked up): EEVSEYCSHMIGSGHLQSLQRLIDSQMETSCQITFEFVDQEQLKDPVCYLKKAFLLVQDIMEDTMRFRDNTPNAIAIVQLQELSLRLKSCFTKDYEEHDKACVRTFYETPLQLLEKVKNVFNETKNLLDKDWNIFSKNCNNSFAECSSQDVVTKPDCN

T2: murine CD40 overexpressed on CHO-K1 cells (CHOK1/CD40) (murine, UniProt P27512 20-289)
T2 construct: whole, on cells; also called mCD40
T2 sequence (looked up): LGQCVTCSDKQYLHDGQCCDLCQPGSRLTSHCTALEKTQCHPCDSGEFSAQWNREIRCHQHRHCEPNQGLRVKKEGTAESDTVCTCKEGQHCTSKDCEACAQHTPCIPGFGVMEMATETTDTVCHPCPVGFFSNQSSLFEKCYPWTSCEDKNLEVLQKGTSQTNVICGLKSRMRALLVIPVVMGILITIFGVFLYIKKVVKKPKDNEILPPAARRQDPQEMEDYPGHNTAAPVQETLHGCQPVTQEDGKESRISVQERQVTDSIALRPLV


What was measured:
[1] = molecular target: T1, recombinant human CSF1 protein (human); experiment: SPR, BioRad ProteOn XPR 360
[2] = molecular target: T2, murine CD40 overexpressed on CHO-K1 …; experiment: flow cytometry on CHOK1/CD40 cells
Method: For cell binding assays, immortalized cell lines were engineered to stably express CD40 (CHOK1/CD40). Increasing concentrations of the murine CSF1R-Fc-CD40L chimeric protein were incubated with the over-expressing (CHOK1/CD40) cell line for 2 hours. Cells were collected, washed, and stained with antibodies for the detection of chimeric protein binding by flow cytometry.
As a negative control, there was no detectable binding to the parental (non-CD40 expressing) CHOK1 cell line.

Sequence of CSF1R-Fc (Fc fusion) (chain): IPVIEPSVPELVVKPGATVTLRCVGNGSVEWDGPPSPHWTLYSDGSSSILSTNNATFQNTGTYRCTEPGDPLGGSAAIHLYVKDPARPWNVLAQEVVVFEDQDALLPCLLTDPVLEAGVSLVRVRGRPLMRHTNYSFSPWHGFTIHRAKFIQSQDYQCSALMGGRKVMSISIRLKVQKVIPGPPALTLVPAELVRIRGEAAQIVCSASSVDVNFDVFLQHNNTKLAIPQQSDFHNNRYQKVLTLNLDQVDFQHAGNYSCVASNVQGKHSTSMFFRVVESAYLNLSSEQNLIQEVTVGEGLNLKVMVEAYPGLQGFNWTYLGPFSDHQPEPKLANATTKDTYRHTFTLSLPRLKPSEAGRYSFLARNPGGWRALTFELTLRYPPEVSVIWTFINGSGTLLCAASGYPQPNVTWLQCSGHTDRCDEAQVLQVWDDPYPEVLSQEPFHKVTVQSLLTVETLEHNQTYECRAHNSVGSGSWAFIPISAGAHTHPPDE

| Kd [1] | koff [1] | kon [1] | EC50 [2] | Molecule |
| --- | --- | --- | --- | --- |
| 0.275 nM | 0.000335 s⁻¹ | 1.22e+06 M⁻¹ s⁻¹ |  | CSF1R-Fc (Fc fusion) |
|  |  |  | 91.1 nM | murine CSF1R-Fc-CD40L chimeric protein (Fc fusion, UniProt P09581 20-515, looked up, constructed 'as described above in the Detailed Description and in U.S. 62/464,002'; also called mCSF1R-Fc-CD40L; mCD115-Fc-CD40L; not shown: Fc linker of the murine chimera) APVIEPSGPELVVEPGETVTLRCVSNGSVEWDGPISPYWTLDPESPGSTLTTRNATFKNTGTYRCTELEDPMAGSTTIHLYVKDPAHSWNLLAQEVTVVEGQEAVLPCLITDPALKDSVSLMREGGRQVLRKTVYFFSPWRGFIIRKAKVLDSNTYVCKTMVNGRESTSTGIWLKVNRVHPEPPQIKLEPSKLVRIRGEAAQIVCSATNAEVGFNVILKRGDTKLEIPLNSDFQDNYYKKVRALSLNAVDFQDAGIYSCVASNDVGTRTATMNFQVVESAYLNLTSEQSLLQEVSVGDSLILTVHADAYPSIQHYNWTYLGPFFEDQRKLEFITQRAIYRYTFKLFLNRVKASEAGQYFLMAQNKAGWNNLTFELTLRYPPEVSVTWMPVNGSDVLFCDVSGYPQPSVTWMECRGHTDRCDEAQALQVWNDTHPEVLSQKPFDKVIIQSQLPIGTLKHNMTYFCKTHNSVGNSSQYFRAVSLGQSKQLPDESLFTPHRRLDKVEEEVNLHEDFVFIKKLKRCNKGEGSLSLLNCEEMRRQFEDLVKDITLNKEEKKENSFEMQRGDEDPQIAAHVVSEANSNAASVLQWAKKGYYTMKSNLVMLENGKQLTVKREGLYYVYTQVTFCSNREPSSQRPFIVGLWLKPSSGSERILLKAANTHSSSQLCEQQSVHLGGVFELQAGASVFVNVTEASQVIHRVGFSSFGLLKL |
